The source of these data is publication PMC4419512.

The target in test [1] is HIV-1 RF envelope glycoprotein (Env) on virus (HIV-1 (RF)) (UniProt P04579).
Test [2] deals with HIV-1 subtype A Q23.7 envelope (Env) on pseudovirus (HIV-1 subtype A).
In test [3] the target is HIV-1 subtype A Q168.a2 envelope (Env) on pseudovirus (HIV-1 subtype A).
Test [4] addresses HIV-1 subtype C Du156.12 envelope (Env) on pseudovirus (HIV-1 subtype C).
The target of test [5] is HIV-1 subtype C DU151.2 envelope (Env) on pseudovirus (HIV-1 subtype C).
Test [6] addresses HIV-1 subtype C COT6.15 envelope (Env) on pseudovirus (HIV-1 subtype C).
For test [7], the target named is HIV-1 subtype C CAP206.8 envelope (Env) on pseudovirus (HIV-1 subtype C).
For test [8], the target named is HIV-1 subtype B CAAN5342.A2 envelope (Env) on pseudovirus (HIV-1 subtype B).
For test [9], the target named is HIV-1 subtype B QH0692.42 envelope (Env) on pseudovirus (HIV-1 subtype B).
Test [10] addresses HIV-1 subtype B JR-FL envelope (Env) on pseudovirus (HIV-1 subtype B) (UniProt Q75760).
Test [11] addresses HIV-1 subtype C Du179.14 envelope (Env) on pseudovirus (HIV-1 subtype C).
In test [12] the target is HIV-1 subtype B PVO.4 envelope (Env) on pseudovirus (HIV-1 subtype B).
For test [13], the target named is monomeric, glycosylated, baculovirus-produced HIV-1 IIIB gp120 (HIV-1 (IIIB)). Nature of the test: ITC; lectin (180 μM) in the syringe, gp120 (2.5 μM) in the cell; 55 injections of 5 μl, 600 s spacing, 300 rpm, 30°C; VP-ITC.

With “4mGRFT, tandem repeat of four mGRFT (1GS-S) domains joined by Gly-Thr-Gly linkers (designed binder)”, the Anti-HIV EC50: concentration at which 50% of CEM-SS cells are protected from the cytopathic effects of HIV-1RF infection (XTT assay) in test [1] worked out at 1.2 pM. Moreover, the IC50 of neutralisation, single cycle Tzm-bl pseudovirus assay amounted to 276 pM in test [2]; 273 pM in test [3]; 88.7 pM in test [4]; 300 pM in [5]; 273 pM in test [6]; 164 pM in [7]. Further, the IC50 of neutralisation, single cycle Tzm-bl pseudovirus assay in test [8] amounted to 232 pM; in [9] it was 170 pM; in test [10] it was 287 pM; in test [11], 93.4 pM; in test [12] it was 185 pM.

One may read the Kd as a measure of binding affinity in units of concentration. Lower therefore signals a tighter complex. In turn, “3mGRFT, tandem repeat of three mGRFT (1GS-S) domains joined by Gly-Thr-Gly linkers (designed binder)” came in with a Kd in test [13] of 3000 pM. The substance also showed a dH in test [13] of -74.4 kcal/mol. The substance also gave an Anti-HIV EC50: concentration at which 50% of CEM-SS cells are protected from the cytopathic effects of HIV-1RF infection (XTT assay) in test [1] of 1 pM. For the same substance, the IC50 of neutralisation, single cycle Tzm-bl pseudovirus assay in [2] is 432 pM; in test [3], 331 pM; in test [4], 79.4 pM; in test [5], 308 pM; in [6], 412 pM; in test [7], 181 pM. Moreover, the IC50 of neutralisation, single cycle Tzm-bl pseudovirus assay came to 326 pM in [8]; 223 pM in test [9]; 325 pM in test [10]; 124 pM in [11]; 270 pM in test [12].

Consider “griffithsin (GRFT), native domain-swapped homodimer (from UniProt P84801 1-121) (natural protein)”, for which the Kd in test [13] amounted to 8000 pM. For the same substance, the dH in test [13] is -30.4 kcal/mol. For the same substance, in test [1], the Anti-HIV EC50: concentration at which 50% of CEM-SS cells are protected from the cytopathic effects of HIV-1RF infection (XTT assay) amounted to 13.8 pM. In addition, the IC50 of neutralisation, single cycle Tzm-bl pseudovirus assay in test [2] was 1190 pM; in test [3] it was 3800 pM; in test [4], 32.4 pM; in [5] it was 1490 pM; in test [6] it was 734 pM; in [7], 2140 pM. For the same substance, the IC50 of neutralisation, single cycle Tzm-bl pseudovirus assay in [8] amounted to 7340 pM; in test [9], 47.3 pM; in [10], 922 pM; in test [11], 606 pM; in test [12], 37 pM.

In [13], “monomeric griffithsin mGRFT (1GS-S) (from UniProt P84801 16-121) (natural protein)” yielded a Kd of 112000 pM and a dH of -35.5 kcal/mol. Moreover, the Anti-HIV EC50: concentration at which 50% of CEM-SS cells are protected from the cytopathic effects of HIV-1RF infection (XTT assay) in [1] came out at 119000 pM.

Regarding “2mGRFT, tandem repeat of two mGRFT (1GS-S) domains joined by a Gly-Thr-Gly linker (designed binder)”, the dissociation constant Kd in [13] came out at 5000 pM. The substance further returned a dH in [13] of -69.6 kcal/mol. Besides, the Anti-HIV EC50: concentration at which 50% of CEM-SS cells are protected from the cytopathic effects of HIV-1RF infection (XTT assay) in [1] came out at 2.7 pM. Further, the IC50 of neutralisation, single cycle Tzm-bl pseudovirus assay turned out to be 7260 pM in test [2]; 1550 pM in test [3]; 18.2 pM in [4]; 694 pM in test [5]; 1460 pM in test [6]; 178 pM in test [7]. For the same substance, the IC50 of neutralisation, single cycle Tzm-bl pseudovirus assay in test [8] stood at 5270 pM; in [9] it was 202 pM; in [10], 2090 pM; in test [11] it was 158 pM; in test [12], 301 pM.

“2mGRFT3, tandem repeat of two mGRFT (1GS-S) domains joined by a (Gly-Thr-Gly)3 linker (designed binder)” showed a Kd in test [13] of 3000 pM. The dH in test [13] was -47.2 kcal/mol. Further, in test [1], the Anti-HIV EC50: concentration at which 50% of CEM-SS cells are protected from the cytopathic effects of HIV-1RF infection (XTT assay) came to 2.6 pM. The IC50 of neutralisation, single cycle Tzm-bl pseudovirus assay in test [2] amounted to 7160 pM; in [3] it was 5280 pM; in test [4], 61.6 pM; in test [5], 1700 pM; in test [6], 2540 pM; in [7], 696 pM. The IC50 of neutralisation, single cycle Tzm-bl pseudovirus assay in [8] amounted to 16900 pM; in test [9], 513 pM; in test [10] it was 5770 pM; in test [11] it was 144 pM; in [12] it was 558 pM.
